Legend:
[1] = target: polyclonal human IgG (Gammanorm, Octapharma) (human); test: gradient elution pH 6 to pH 3 from a column of immobilised ligand; polyclonal IgG (Gammanorm) shows the biggest difference
[2] = target: polyclonal human IgG (Gammanorm, Octapharma) (human); test: gradient elution pH 6 to pH 3 (0.1 M citrate) from a column of immobilised ligand, pH at peak apex
[3] = target: polyclonal human IgG (Gammanorm, Octapharma) (human); test: breakthrough on a column of immobilised ligand, 1 mg/ml IgG, pH 7.4, residence time 2.4 min, ligand density 9.6 mg/ml

Question: With “Mutant Z(H18S)4: ligand tetramer containing four copies of protein Z, each containing the H18S substitution (designed binder)” as the substance, how does the increase in elution pH compared to Z4 [1] read?
Answer: Its increase in elution pH compared to Z4 is > 1 >pH unit.

Question: And the elution pH, hIgG (first peak) [2]?
Answer: The elution pH, hIgG (first peak) was 5.11 pH.

Question: And the elution pH, hIgG (second peak) [2]?
Answer: The elution pH, hIgG (second peak) was 4.61 pH.

Question: And the Qb10% (dynamic binding capacity at 10% breakthrough) [3]?
Answer: Its Qb10% (dynamic binding capacity at 10% breakthrough) is 36.4 mg/ml resin.

Question: And the Qb80% (dynamic binding capacity at 80% breakthrough) [3]?
Answer: Its Qb80% (dynamic binding capacity at 80% breakthrough) is 65 mg/ml resin.

Reference: US20130338339A1
